Results taken from a protein production outcome set (Wang et al. 2014).

assay: label from the status in PepcDB records

Row | Sequence | protein production
1 | MRVLKFGGSSLADADRFLRAADIIANNAQQEEVAVVLSAPGKTTNKLVAVIEGALRNGEAELQINELEESFKTLFADIQAVLPNLEGAAFDNQVKTSLSQLRQFVHGINLLGMCPNNVNAR | failed
2 | MRVLVVGANGKVARYLLSELKNKGHEPVAMVRNEEQGPELRERGASDIVVANLEEDFSHAFASIDAVVFAAGSGPHTGADKTILIDLWGAIKTIQEAEKRGIKRFIMVSSVGTVDPDQGPMNMRHYLVAKRLADDELKRSSLDYTIVRPGPLSNEESTGKVTVSPHFSEITRSITRHDVAKVIAELVDQQHTIGKTFEVLNGDTPIAKVVEQL | not failed
3 | MRVMRICLVGLGAVGQGFLRAVQMKGEYLRERYGLDIRFTGVADSSGALHDPDGLDIRGVLEHKKRAGLGSHPSGYEGMTGDELLDEAEYDCLVEATPTNIEDGEPGRSLVLKAMGDGKHVVTSNKGHLALFYSELMEAASEAGVEFMFEASVGGAMPIINLARETLASCTIESVIGILNGTTNFILSRMASEGSSYRQALIEAQELGIAETNPAQDVEGTDAACKAVIIANSILGRPCTLRDVRVEGITGITQGAIELAAQEGYLIKLIAEISGDRLEVGPRLVRMGSPYAVDGTLNMATLRTDLAGEVTAVGRGAGSLETASAMLTDTITIWRKSGGR | failed
4 | MRVTYWRDESLQKNDRSHIKAYALMSGILAQLVGSILVGIFGGQWIDNKVGTFPLFLIIGLLLGLGTGVYAMIRLIRHYYSGEQ | failed
5 | MRVVVMGCGRVGASVADGLSRIGHEVAIIDRDSAAFNRLSPQFAGERVLGQGFDRDVLLRAGIQGADAFAAVSSGDNSNIISARLARETFGVPRVVARIYDAKRAEVYERLGIPTIATVPWTTDRLLNALMQDTETAKWRDPTGTVAVAEVVLHEDWVGHRATDLEQATGARIAFLIRFGTGVLPEPKTVLQAGDKVYIAAISGRAAEAAAIAALPPSEDFESGARR | failed
6 | MRWDVVAWAVLALLLIAAETLAPGAFLLWMGIAAAAVCVLVLAVPGTSVLLQIVAFVVLSFVAIQVYRTWFRGKGRQSDRPLLNRRAEQLIGRSVLLDQAIVDGRGRAKVDDAFWVVSGPDLPAGALVRIVAVDGMTLQVQPNT | failed
7 | MRYEKMNQEILAAIGGEENIQSVVHCATRLRFVLKDESKADDKKAEAIDGILQVVKKGGQYQLVIGNNVEDVYDDLINMIHIETSDSNKPKKKQNLFDAIIGAITGSIAPAIPLLAGAGMGKVLLLILTICHVLSDKSQTYQLLNLIFDTGYYFMPAYVGFSAAKIFNTDRMLGAFIGLMTVHPSWVQIVTTNKPFHFLGLPVPLVQYSSTLITAILSVWIMSYIYKFVRKITPGMVKVFMEPMLTMLITGPLVFLIIGPISNWISEGIGFIAMWLFRNAGVIAIPILAALYPWLVSIGIHKALSPISIQLVATQGFDPIIRVVALCSNMSQAAASLAVGLKTKNKKLKSLALSSSVTAYLGGITEPALFGVNLRLKKPMYGAMIGGAIAGIVASFMKLKAFIYVTPAFLSLPMWISKTENFVVQAIIVIIVASVATFIATWIIGFDDPIDEDQVKNAKKEEKKNFDKDHKKHELHAPVKGQLEDISKVADPTFASGVMGKGIAIVPSEGKIFAPEDGVVTAIFDTHHAIGLHLSNDADVLIHVGIDTVEMKGKGFKQLVQKGDKVTAGQELLDFNIDEIKKNGYDPTVVMIVTNSKDFLEVLTVLKDKDATKEVTNQDNVIILA | failed
8 | MRYLIGGIFLLISIWQFIVTGRTFSYLKKEGGKRTSPFILLGLWSSLVFAIISFAVAIASFFYVSF | failed
9 | MRYLVWALRLLVFVAVLMFALKNTNPVAVTFYADYVVHDVPLIVVMLVVFVVGALFGLLLTVPAAMRRRREALRLRREVERLQAAASGTPPVVTPEAVAPMSPL | failed
10 | MRYRRAARPVATVLIHAMQTYPLVFHASPDQTIAWRDGAPVAVRTFLAEVAQLAAALPAGAHVFNACTDRYRFTVGLCATLVAGKISLLPASQTPETVRRLAAFAPDVFCLHDAPDCAIALPRFRFPEPLPPAGADAPVDVPQIDASRVMAYIFTSGSTGTPVPHRKTWGALVEGVRASAARLGLLDAHACTLVGTVPPQHMYGFESTVLLALVGGLAFSNRLPFYPADIRAALEAVPQPRVLVTSPIHLRALLSSERALPPAALVLSATAALPEPLASEAEARLAAPLIEIYGSTETGQIATRRTAQGATWHLQPGIRLEARAGTPDEDGPVTWASGAHLDAPVPMGDTLELIDDTHFLLHGRKADLINVAGKRTSLAYLNHQLNAIPGVEDGVFFMPSAADNGSEPPARLAALVVAPELAAADLLHALRERIDPAFLPRPLLLVEALPRDATGKLPRDALAALIAQHGHRGARAGAPAPITFTIPADHPALPGHFPGHPIVPGVVLLDQAIRRIGAALNRPFDACRLSSAKFLSPAAPGVPLALAFEATASGAIRFTVSAGEREVASGVLAQQEAARP | failed
11 | MRYSLFKNYLPKEEVPEIRKELIKLALPAMGENVLQMLFGMADTAFLGHYSWKAMSGVGLSNQVFWVVQVVLIAASMGATVTIANAIGAGNRKAVRSLAWNSVFLAIFTGVILTALTPLSDVLINIFPNLEGEIESSAKEYLKVILSGSMGFSIMAVFSAMLRGAGDTRTPMIVTGLTNFLNIFLDYAMIFGKFGFPEMGVRGAAVATILSRFVGAGILTYVIFKREEFQLRKGLVPPKWSSQKEILRVGFPTAIENFVFSTGVLMFANILLIAGAEAYAGHRIGINVESLSFMPAFGISVAITTLVGRYNGMGNKEHVLGVIRQGWILSLLFQVTVGIIIFLFPEPLIRIFTSDPQIIEISKLPVKIIGLFQFFLAIDSTMNGALRGTGNTLPPMIITFISIWTARLPVAFVMVKYFQLGLLGAWIGMIADIIFRSTLKLLFFLSGKWEKRAVLTRERVKELG | failed
12 | MRYVVGHKNPDTDSIASAIVLAYFLDCYPARLGDINPETEFVLRKFGVMEPELIESAKGKEIILVDHSEKSQSFDDLEEGKLIAIIDHHKVGLTTTEPILYYAKPVGSTATVIAELYFKDAIDLIGGKKKELKPDLAGLLLSAIISDTVLFKSPTTTDLDKEMAKKLAEIAGISNIEEFGMEILKAKSVVGKLKPEEIINMDFKNFDFNGKKVGIGQVEVIDVSEVESKKEDIYKLLEEKLKNEGYDLIVFLITDIMKEGSEALVVGNKEMFEKAFNVKVEGNSVFLEGVMSRKKQVVPPLERAYNG | not failed
13 | MSAAIAALAASYGSGSGSESDSDSEGSRCPLPAADSLMHLTKSPSAKPSLTVAVDSAPEVAVKEDLETGVHLDPAVKEVQYNPTYETMFAPELLPSHXSXPFEQWHHPRELPTGTRVPAPVTXALFPQERGSVICTCLLSGYALDPSLDNHQVSAKYIGSVEDAEKNQGLTVFETGQKKTEKRKKFKENDASNIDGFLGPWAKYVDEKDVAKPSEEEQKELDEITAKRQKKGKQEEEKPGEEKTILHVKEMYDYQGRSYLHIPQDVGVNLRSSVPPEKCYLPKKQIHVWSGHTKGVSAVRLFPLSGHLLLSCSMDCKIKLWEVYGDRRCLRTFIGHSKAVRDICFNTAGTQFLSAAYDRYLKLWDTETGQCISRFTNRKVPYCVKFNPDEDKQNLFVAGMSDKKIVQWDIRSGEIVQEYDRHLGAVNTIVFVDENRRFVSTSDDKSLRVWEWDIPVDFKYIAEPSMHSMPAVTLSPNGKWLACQSMDNQILIFGAQNRFRLNKKKIFKGHMVAGYACQVDFSPDMSYVISGDGNGKLNIWDWKTTKLYSRFKAHDKVCIGAVWHPHETSKVITCGWDGLIKLWD | failed
14 | MSAEAADREAVSGSRPCTPPQTSWFEFLLNPSLLEQHLHSPHPDPSPVQLIFQFLEQASKPSVNEQNQVQPPVDNRRNRTLKLMALKVAAHLRWDLNMLEKGLTIPVLNMLLNELLCVSHVPPGVKHVDLDLSSLPPTTAMAVVFYNRWAIRTIVLSSFPEKQTKPGPHQLNMMNMLQQEKEHTENILSVLREQATDSIMVLEGALSIKKDFYIHL | not failed
15 | MSAGEHAGGVFLGGIAIDEPTREAARAMVDRDREEFLPADPVAWVDDQLSELDDAFLRPAVNVRAVRLGPLRDVAAVCAAHDAILEVNAHCRQDELCDAGAGETLLRDTSRLCEQVRAASDEGAAVSVKVRAGVQGVHLPVLAQAIERAGAAAIHVDAMDSRRVVRDVADATALFVVANNGVRTRDDVFEYLSYGADAVSVGRPSRDPERVRAVYAAVKEWLL | failed
16 | MSAHLLIILPLIIPFVAAVAALLFARWPTVQKGINIVSMGGILAASLGLLSRITEQGIQVTTIGDWPVPFGIVFVVDHLSVVMLIVSAIIGLAVAVYAVPDVDDARVRFGFYPFFNLLMIGINGAFLTGDLFNLYVWFEVMLISSFVLIVLGNTDEQLAGAVKYVVINLVSSLLFLSGVGLVYGMTGTLNMAELSLALSEVGQPGLVTVVAMLFLISFGIKAALFPLFFWLPASYHTPPASVSAFFAGLLTKVGVYALFRVFTLLFTQDVGYTHTLLLWGAGLTMVTGVLGAAVQNDFRRVLSFHIVSQIGYMIMGLALYTPLAILGGVFYIVHHIIVKANLFLVSGVAKRLRGSFSLKSLDGLYAYHPWLAALFIIPAFSLAGFPPLSGFWAKLILTIAGIETGAYWIVTVAVAVGLFTMFSMTKIWVKAFLPGGGGDLADAVSSMGLGTRVMYVPIAGLAALTIMISVFAGPVYDLAERSADELYNSSEYVEAVLNHEKSAADAGPRPGVDGRTGRVHAR | failed
17 | MSAICQVTGRQPGYGKSVSHSHRRTSRRWNPNVQRRKFYLPSEGRTITLNVSTKGLKVIDRDGIESVVAKIRARGEKILEHHHHHH | failed
18 | MSAITRYLAMLRLFGMLLCAAAIPSVATATVPVTVAVAASDVEEEAVEASAVGAEAEAARDAGYESAEVPALARRVTDLTATLDAAERARLEASLAALEARKGAQVAILMVPSTYPDSIEAYATRVFEAWKLGRKGIDDGVLVLVAKDDRRMRIEVGYGLEGTITDIDAGRIIREYMTPAFRQQDYAGGLEAAAQRLVRLIDGEALPPPPRDPLEPGAVRQTLAIAFLLGALGGVALLVRPRAWYWTLGAVVALAAALALGRHWPAGAMVALAEMVAVLGVGFGALLKYSRGARWFFAILVLYALGLFWAYRRYGLPVLHYGLAVPLSLGLSLLMLAGAWQGLRRGRRWAYLPGLLGLLLTLALECLLLLVDDPLNSIEALIILPAACLPLLIGCNFSAGGSGGGRRRGGDYASSSGSSSSSSSSSSSDSFSGGGGSSGGGGASGSWLEHHHHHH | failed
19 | MSAKRVFEKFDKNKDGKLSLDEFREVALAFSPYFTQEDIVKFFEEIDVDGNGELNADEFTSCIEKML | not failed
20 | MSALIDTWFLGCRAAATAVLYVLFAVVAGGAVSAARAATVAASAPAPVTVGSGKKAVRQGISLELLVKPTHAEDGFSAAVVEGAYADVSLKMTDAATGHPVTVMQPRVWIDLRKGTGDFREKQMACSDKVRTYLQGTLSFRPDIDLNSYFVLTLNNDASISVIDPIIGVAGYSQLYAMILLKRPGEDWVFSFDGKRLYVTMPKAGEVAEIDTDSLAVVRNIPAGAMPVRMAFQPDSRYLWVGNDSSDPARSGVTVIDPFSGTQAAFIQTGAGHHEIAFADDSRYAFVTNQQSGTLTIIDIQSLAPVKTLRLGDGPVSVAYSALSKCAHVVCEGDGNLLVVDGLSHEIISRKTFEPGFREVRFAPGDRWYFTVNGKNGQILVFDAAGNELLHSTVVAGRPEHVSFSTEFAYIRSLGTADVTLIPLAALGKAAILTPLVVSGGSRPPADSPLLPPTADPIVVTPEGNSVLIASPSDGAVVYYMEGMGVPMGSFKTYGRLPRAVNVINRQLRQNVPGVFSSRVKIPLAGTYDVAVLLDSPRIVQCFEFSADANPALQRLKTERPVMVEFVGSALRVEAGRESVVRFRVTDPVTHEPVADLRDLIVVTSLVPTGAWRQQLVSRPVGNGIYEVTFTARKVGIYSFNFAIPSLKVKLYQLAGMMIHAVETPAEAGSDVPAGQKKD | failed
